According to US20070036810A1, “Cyclic amp response element activator proteins and uses related thereto” (priority 2003, published 2007):

Assays:
Format in all cases: cell-based
[1] = test system: GAL4 DNA binding sites (UAS-Luc, pFR-Luc reporter); assay: GAL4 DNA binding domain fusion transactivation assay (pFR-Luc) in HEK 293 cells; details: normalized to pCMV-BD vector
Text: To determine if CREAP proteins can act as a transcription activators, various regions of all 3 CREAP homologs (amino acids 300-650 of CREAP1, amino acids 296-694 of CREAP2 and amino acids 335-635 of CREAP3) were expressed as fusion proteins with the DNA binding domain of GAL4 and tested for the ability to activate expression of a reporter gene linked to GAL4 protein binding sequences (UAS-Luc (pFR-Luc reporter). Briefly, the indicated regions of CREAP1, CREAP2 and CREAP3 were amplified by PCR and subcloned in frame into pCMV-BD vector (Stratagene) encoding GAL4 DNA binding domain. Selected plasmids and empty vector (pCMV-SPORT6) were transfected into HEK 293 cells at 75 ng/well using Fugene6 transfection reagent (Roche) as described above. pFR-Luc reporter (Stratagene) encoding firefly luciferase gene driven by minimal promoter linked to 5 concatamerized GAL4 binding sites (UAS) was co-transfected at 100 ng/well. As a positive control, the reporter was also co-transfected with a plasmid encoding GAL4-CREB fusion protein (Stratagene) alone or in the presence of pFC-PKA an expression construct encoding catalytic subunit of protein kinase A (Stratagene) to activate the CREB kinase inducible activation domain. Fold induction was compared to the reporter's activity measured in the cells transfected with pCMV-BD an expression vector carrying GAL4 DNA binding domain only.
Expression constructs encoding full length CREAP1, CREAP2 and CREAP3 as well as a Gal4 DNA binding domain alone or fused with C-terminal portions of CREAP1, CREAP2 and CREAP3 were tested for the ability to induce expression of a luciferase gene controled by a minimal promoter linked to GAL4 DNA binding sites (pFRLuciferase). The data shown are normalized to the value seen with pCMV-BD vector co-transfected with pFR-Luc reporter.

GAL4-CREB fusion protein = assay: GAL4-CREB activation assay in HLR cell line; details: HLR cell line with integrated pFR-Luc reporter, normalized to pCMV-BD vector
Experimental: To determine if CREAP proteins can directly activate CREB1 protein, the expression constructs of CREAP1, CREAP2 and CREAP3 were transfected individually or with GAL4-CREB plasmid (Stratagene) into HLR cell line (Stratagene) carrying genomic DNA integrated copies of pFR-Luc reporter. Briefly, HLR cells were maintained per manufacturer's instructions. Selected plasmids and either empty vector (pCMV-BD) or GAL4-CREB plasmid were transfected at 75 ng/well using Fugene6 transfection reagent (Roche) as described above. As a positive control pFC-PKA an expression construct encoding catalytic subunit of protein kinase A (Stratagene) was also co-trasfected with GAL4-CREB. Fold of activation was compared to the reporter's activity measured in the cells transfected with empty vector.
The ability of full length CREAP1, CREAP2 and CREAP3 to induce the activity of GAL4-CREB fusion protein (Stratagene) was tested. The data presented are normalized to the value seen with pCMV-BD vector. […] Note the fold induction obtained with positive control is lower when compared to the data from Table 6 when all the plasmids including the reporter were transiently transfected.

[2] = target: T1, ATF2-GAL4 fusion molecule (Homo sapiens, UniProt P15336); assay: In vivo kinase assay, ATF2-GAL4 fusion in HLR cells; details: 40 hours after transfection
T1 construct: host or cells: HLR cell line (5x GAL4 element-luciferase reporter)
T1 sequence (P15336 with tags, fused parts or gaps limits assumed): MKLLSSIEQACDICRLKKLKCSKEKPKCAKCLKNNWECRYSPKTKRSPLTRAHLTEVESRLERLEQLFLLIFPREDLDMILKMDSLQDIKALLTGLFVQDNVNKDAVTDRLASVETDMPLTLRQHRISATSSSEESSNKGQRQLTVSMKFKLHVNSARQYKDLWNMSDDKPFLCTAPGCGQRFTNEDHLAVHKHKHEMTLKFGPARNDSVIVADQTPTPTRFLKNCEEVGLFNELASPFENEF
Experimental: For in vivo kinase assay, activation domains of CREB or ATF2 transcription factors fused with the yeast GAL4 DNA binding domain (1-147 Amino Acids) constructs are used (Stratagene, PathDetect In Vivo Signal Transduction Pathway trans-reporting Systems). The HLR cell line that contains a 5× GAL4 DNA binding element and TATA box driving luciferase reporter is used per manufacturer's protocol (Stratagene). 10^4 HLR cells are split into each well of 96 well tissue culture plates. After 16 hours, cells are transfected with 100 ng of Creb-GAL4 or ATF2-GAL4 fusion constructs, 30 ng of Renilla luciferase control plasmid together with 100 ng of pCMVSPORT6, pCMVSPORT-CREAP1, pFC-PKA or pFC-MEKK (Stratagene) activator plasmids respectively. Transfection is done with Fugene6 reagent (Roche Molecular Biochemicals, Basel, Switzerland) according to the manufacturers manual. Forty hours after transfection, a Dual-Glo Luciferase assay (Promega) is conducted using the manufacturer's protocol.
As CREAP1 strongly activates CRE promoter transcription, we next investigated whether CREAP1 works through the CREB pathway. […]

B1: CREAP1: human CRE activating protein 1, 650 amino acids, SEQ ID NO 2; expressed from pCMVSPORT-CREAP1 (protein)
chain: MATSNNPRKFSEKIALHNQKQAEETAAFEEVMKDLSLTRAARLQLQKSQYLQLGPSRGQYYGGSLPNVNQIGSGTMDLPFQPSGFLGEALAAAPVSLTPFQSSGLDTSRTTRHHGLVDRVYRERGRLGSPHRRPLSVDKHGRQADSCPYGTMYLSPPADTSWRRTNSDSALHQSTMTPTQPESFSSGSQDVHQKRVLLLTVPGMEETTSEADKNLSKQAWDTKKTGSRPKSCEVPGINIFPSADQENTTALIPATHNTGGSLPDLTNIHFPSPLPTPLDPEEPTFPALSSSSSTGNLAANLTHLGIGGAGQGMSTPGSSPQHRPAGVSPLSLSTEARRQQASPTLSPLSPITQAVAMDALSLEQQLPYAFFTQAGSQQPPPQPQPPPPPPPASQQPPPPPPPQAPVRLPPGGPLLPSASLTRGPQPPPLAVTVPSSLPQSPPENPGQPSMGIDIASAPALQQYRTSAGSPANQSPTSPVSNQGFSPGSSPQHTSTLGSVFGDAYYEQQMAARQANALSHQLEQFNMMENAISSSSLYSPGSTLNYSQAAMMGLTGSHGSLPDSQQLGYASHSGIPNIILTVTGESPPSLSKELTSSLAGVGDVSFDSDSQFPLDELKIDPLTLDGLHMLNDPDMVLADPATEDTFRMDRL
modifications: human
B1 was tested, and the “Fold Induction” value [1] was 2.468, the “Fold Induction” value (GAL4-CREB fusion protein) was 6.122 and the “activation of the ATF2-GAL4 fusion molecule” value [2] was “unable to activate”.
